Substrate in the data set: Nc1ncnc2c1ncn2[C@@H]1O[C@H](COP(=O)(O)OP(=O)(O)OP(=O)(O)O)[C@@H](O)[C@H]1O
Nature of the data set: purified protein. The note with it: 1 mM KCl, 37 °C.

One may read the Km as the substrate concentration at which the rate is half of its maximum.

Substitutions are numbered along the chain they refer to. In names and notes the source's numbering stands.

B1: KdpFABC (nucleotide / vanadate rows, site in KdpB) (Escherichia coli K-12) (protein)
chain: MSRKQLALFEPTLVVQALKEAVKKLNPQAQWRNPVMFIVWIGSLLTTCISIAMASGAMPGNALFSAAISGWLWITVLFANFAEALAEGRSKAQANSLKGVKKTAFARKLREPKYGAAADKVPADQLRKGDIVLVEAGDIIPCDGEVIEGGASVDESAITGESAPVIRESGGDFASVTGGTRILSDWLVIECSVNPGETFLDRMIAMVEGAQRRKTPNEIALTILLIALTIVFLLATATLWPFSAWGGNAVSVTVLVALLVCLIPTTIGGLLSAIGVAGMSRMLGANVIATSGRAVEAAGDVDVLLLDKTGTITLGNRQASEFIPAQGVDEKTLADAAQLASLADETPEGRSIVILAKQRFNLRERDVQSLHATFVPFTAQSRMSGINIDNRMIRKGSVDAIRRHVEANGGHFPTDVDQKVDQVARQGATPLVVVEGSRVLGVIALKDIVKGGIKERFAQLRKMGIKTVMITGDNRLTAAAIAAEAGVDDFLAEATPEAKLALIRQYQAEGRLVAMTGDGTNDAPALAQADVAVAMNSGTQAAKEAGNMVDLDSNPTKLIEVVHIGKQMLMTRGSLTTFSIANDVAKYFAIIPAAFAATYPQLNALNIMCLHSPDSAILSAVIFNALIIVFLIPLALKGVSYKPLTASAMLRRNLWIYGLGGLLVPFIGIKVIDLLLTVCGLV
On to B1, for which the Km is given as 0.15 mM.

B2: KdpFABC (nucleotide / vanadate rows, site in KdpB) (Escherichia coli K-12; F232A) (protein)
chain: B1 chain with F232A
For B2, the Km (K+-uncoupled variant) is 0.10 mM.
